Data published in patent US20190062453A1 (Hoffmann-La Roche, published 2019).
Like-named read-outs stand apart in the source and are kept apart here.

B1: Drozitumab-X-FAP_B (2 + 2) (bispecific antibody, human IgG1, lambda)
heavy: not shown
chain: not shown
light: SELTQDPAVSVALGQTVRITCSGDSLRSYYASWYQQKPGQAPVLVIYGANNRPSGIPDRFSGSSSGNTASLTITGAQAEDEADYYCNSADSSGNHVVFGGGTKLTVLGQPKAAPSVTLFPPSSEELQANKATLVCLISDFYPGAVTVAWKADSSPVKAGVETTTPSKQSNNKYAASSYLSLTPEQWKSHRSYSCQVTHEGSTVEKTVAPTECS
notes: 4G8 VL-CH1 fused to the C-terminus of the Drozitumab heavy chain; also called GA803_A01_E02A_015
B2: 4G8_scFab_HC (bispecific antibody, human IgG1, kappa, lambda)
heavy: not shown
light: SELTQDPAVSVALGQTVRITCSGDSLRSYYASWYQQKPGQAPVLVIYGANNRPSGIPDRFSGSSSGNTASLTITGAQAEDEADYYCNSADSSGNHVVFGGGTKLTVLGQPKAAPSVTLFPPSSEELQANKATLVCLISDFYPGAVTVAWKADSSPVKAGVETTTPSKQSNNKYAASSYLSLTPEQWKSHRSYSCQVTHEGSTVEKTVAPTECS
notes: also called GA803_A01_B02A_001; Drozitumab-scFab-FAP
B3: DR5(5E11)-28H1 VHCL 2 + 2 (bispecific antibody, human IgG1, kappa)
heavy: not shown
light: EIVLTQSPGTLSLSPGERATLSCRASQSVSSSYLAWYQQKPGQAPRLLIYGASSRATGIPDRFSGSGSGTDFTLTISRLEPEDFAVYYCQQGTTHPITFGQGTKVEIKRTVAAPSVFIFPPSDEQLKSGTASVVCLLNNFYPREAKVQWKVDNALQSGNSQESVTEQDSKDSTYSLSSTLTLSKADYEKHKVYACEVTHQGLSSPVTKSFNRGEC
chain: EIVLTQSPGTLSLSPGERATLSCRASQSVSRSYLAWYQQKPGQAPRLLIIGASTRATGIPDRFSGSGSGTDFTLTISRLEPEDFAVYYCQQGQVIPPTFGQGTKVEIKSSASTKGPSVFPLAPSSKSTSGGTAALGCLVKDYFPEPVTVSWNSGALTSGVHTFPAVLQSSGLYSLSSVVTVPSSSLGTQTYICNVNHKPSNTKVDKKVEPKSCD
notes: also called DR5TAA-0030
B4: DR5TAA-0078 (bispecific antibody)
heavy: not shown
chain: EIVLTQSPGTLSLSPGERATLSCRASQSVSSSYLAWYQQKPGQAPRLLIYGASSRATGIPDRFSGSGSGTDFTLTISRLEPEDFAVYYCQQGTTHPITFGQGTKVEIKSSASTKGPSVFPLAPSSKSTSGGTAALGCLVKDYFPEPVTVSWNSGALTSGVHTFPAVLQSSGLYSLSSVVTVPSSSLGTQTYICNVNHKPSNTKVDKKVEPKSCD
light: EIVLTQSPGTLSLSPGERATLSCRASQSVSRSYLAWYQQKPGQAPRLLIIGASTRATGIPDRFSGSGSGTDFTLTISRLEPEDFAVYYCQQGQVIPPTFGQGTKVEIKRTVAAPSVFIFPPSDEQLKSGTASVVCLLNNFYPREAKVQWKVDNALQSGNSQESVTEQDSKDSTYSLSSTLTLSKADYEKHKVYACEVTHQGLSSPVTKSFNRGEC
notes: also called format D
B5: DR5TAA-0033 (bispecific antibody, human IgG1, kappa)
heavy: not shown
light: ADIVMTQTPASVSEPVGGTVTIKCQASQSISTYLSWYQQKPGQPPKRLIYKASTLASGVPSRFKGSGSGTDFTLTIRDLECADAATYYCQPNSGIATYGAAFGGGTEVVVKRTVAAPSVFIFPPSDEQLKSGTASVVCLLNNFYPREAKVQWKVDNALQSGNSQESVTEQDSKDSTYSLSSTLTLSKADYEKHKVYACEVTHQGLSSPVTKSFNRGEC
chain: EIVLTQSPGTLSLSPGERATLSCRASQSVSRSYLAWYQQKPGQAPRLLIIGASTRATGIPDRFSGSGSGTDFTLTISRLEPEDFAVYYCQQGQVIPPTFGQGTKVEIKSSASTKGPSVFPLAPSSKSTSGGTAALGCLVKDYFPEPVTVSWNSGALTSGVHTFPAVLQSSGLYSLSSVVTVPSSSLGTQTYICNVNHKPSNTKVDKKVEPKSCD
notes: also called 0011-28H1
B6: DR5TAA-0077 (bispecific antibody, human IgG1, kappa)
heavy: not shown
chain: not shown
light: EIVLTQSPGTLSLSPGERATLSCRASQSVSRSYLAWYQQKPGQAPRLLIIGASTRATGIPDRFSGSGSGTDFTLTISRLEPEDFAVYYCQQGQVIPPTFGQGTKVEIKRTVAAPSVFIFPPSDEQLKSGTASVVCLLNNFYPREAKVQWKVDNALQSGNSQESVTEQDSKDSTYSLSSTLTLSKADYEKHKVYACEVTHQGLSSPVTKSFNRGEC
notes: also called format C
B7: DR5(5E11)-28H1 VHCL 2 + 2 P329GLALA (bispecific antibody, human IgG1, kappa, L234A L235A)
heavy: not shown
light: EIVLTQSPGTLSLSPGERATLSCRASQSVSSSYLAWYQQKPGQAPRLLIYGASSRATGIPDRFSGSGSGTDFTLTISRLEPEDFAVYYCQQGTTHPITFGQGTKVEIKRTVAAPSVFIFPPSDEQLKSGTASVVCLLNNFYPREAKVQWKVDNALQSGNSQESVTEQDSKDSTYSLSSTLTLSKADYEKHKVYACEVTHQGLSSPVTKSFNRGEC
chain: EIVLTQSPGTLSLSPGERATLSCRASQSVSRSYLAWYQQKPGQAPRLLIIGASTRATGIPDRFSGSGSGTDFTLTISRLEPEDFAVYYCQQGQVIPPTFGQGTKVEIKSSASTKGPSVFPLAPSSKSTSGGTAALGCLVKDYFPEPVTVSWNSGALTSGVHTFPAVLQSSGLYSLSSVVTVPSSSLGTQTYICNVNHKPSNTKVDKKVEPKSCD
notes: C-terminal lysine removed, L234A L235A P329G in Fc; also called DR5TAA-0057; format A
B8: DR5TAA-0035 (bispecific antibody, human IgG1, kappa)
heavy: not shown
light: ADIVMTQTASPVSAAVGGTVTINCQASQSISSSYVSWYQQKPGQPPKLLIYKASTLASGVPSRFSGSGSGTQLSLTIRGVQCDDAATYYCLYGYSDVSSSEYVFGGGTEVVVRRTVAAPSVFIFPPSDEQLKSGTASVVCLLNNFYPREAKVQWKVDNALQSGNSQESVTEQDSKDSTYSLSSTLTLSKADYEKHKVYACEVTHQGLSSPVTKSFNRGEC
chain: EIVLTQSPGTLSLSPGERATLSCRASQSVSRSYLAWYQQKPGQAPRLLIIGASTRATGIPDRFSGSGSGTDFTLTISRLEPEDFAVYYCQQGQVIPPTFGQGTKVEIKSSASTKGPSVFPLAPSSKSTSGGTAALGCLVKDYFPEPVTVSWNSGALTSGVHTFPAVLQSSGLYSLSSVVTVPSSSLGTQTYICNVNHKPSNTKVDKKVEPKSCD
notes: also called 0016-28H1
B9: DR5TAA-0081 (bispecific antibody, human IgG1, kappa, L234A L235A)
heavy: not shown
light: EIVLTQSPGTLSLSPGERATLSCRASQSVSSSYLAWYQQKPGQAPRLLIYGASSRATGIPDRFSGSGSGTDFTLTISRLEPEDFAVYYCQQGTTHPITFGQGTKVEIKRTVAAPSVFIFPPSDEQLKSGTASVVCLLNNFYPREAKVQWKVDNALQSGNSQESVTEQDSKDSTYSLSSTLTLSKADYEKHKVYACEVTHQGLSSPVTKSFNRGEC
chain: EVQLLESGGGLVQPGGSLRLSCAASGFTFSSHAMSWVRQAPGKGLEWVSAIWASGEQYYADSVKGRFTISRDNSKNTLYLQMNSLRAEDTAVYYCAKGWLGNFDYWGQGTLVTVSSASVAAPSVFIFPPSDEQLKSGTASVVCLLNNFYPREAKVQWKVDNALQSGNSQESVTEQDSKDSTYSLSSTLTLSKADYEKHKVYACEVTHQGLSSPVTKSFNRGEC
notes: also called format F
B10: Drozitumab-X-FAP_A (2 + 2) (bispecific antibody, human IgG1, lambda)
heavy: not shown
chain: EIVLTQSPGTLSLSPGERATLSCRASQSVSRSYLAWYQQKPGQAPRLLIIGASTRATGIPDRFSGSGSGTDFTLTISRLEPEDFAVYYCQQGQVIPPTFGQGTKVEIKSSASTKGPSVFPLAPSSKSTSGGTAALGCLVKDYFPEPVTVSWNSGALTSGVHTFPAVLQSSGLYSLSSVVTVPSSSLGTQTYICNVNHKPSNTKVDKKVEPKSCD
light: SELTQDPAVSVALGQTVRITCSGDSLRSYYASWYQQKPGQAPVLVIYGANNRPSGIPDRFSGSSSGNTASLTITGAQAEDEADYYCNSADSSGNHVVFGGGTKLTVLGQPKAAPSVTLFPPSSEELQANKATLVCLISDFYPGAVTVAWKADSSPVKAGVETTTPSKQSNNKYAASSYLSLTPEQWKSHRSYSCQVTHEGSTVEKTVAPTECS
notes: 4G8 VH-CL fused to the C-terminus of the Drozitumab heavy chain; also called GA803_A01_E02A_014

How the values were obtained:
[1] = biological target: T1, human FAP on cells (human, UniProt Q12884 1-760); experiment: FACS on recombinant HEK293 cells expressing human FAP
T1 construct: whole, on cells; also called human FAP expressed on recombinant HEK293 cells; FAP on GM05389 fibroblasts

[2] = biological target: T2, Hu DR5 (ECD)-AcTev-Fc-Avi (human); experiment: SPR (Biacore), biotinylated human DR5-Fc on a streptavidin chip, bispecific antibody as first analyte
T2 construct: dimeric Fc fusion, biotinylated on the Avi tag where immobilised on streptavidin; also called human DR5-Fc; huDR5Fc

[3] = biological target: T3, Human FAP ectodomain + poly-lys-tag + his6-tag (human, UniProt Q12884 27-760); experiment: SPR (Biacore), bispecific antibody bound to immobilised human DR5-Fc, recombinant soluble human FAP as second analyte (simultaneous binding)
T3 construct: also called recombinant soluble human FAP; hFAP

[4] = biological target: T4, Murine FAP ectodomain + poly-lys-tag + his6-tag (murine, UniProt P97321 27-761); experiment: SPR (Biacore), bispecific antibody bound to immobilised human DR5-Fc, recombinant soluble murine FAP as second analyte (simultaneous binding)
T4 construct: also called recombinant soluble murine FAP

[5] = biological target: murine FAP on recombinant 3T3 cells (murine, UniProt P97321 1-761); experiment: cell-based or functional assay
[6] = biological target: T5, cynomolgus DR5 in the TagLite assay (cynomolgus); experiment: TagLite TR-FRET on cells
T5 construct: also called cy DR5 (TagLite)

[7] = biological target: T3, Human FAP ectodomain + poly-lys-tag + …; experiment: SPR (Biacore), bispecific antibody bound to immobilised human DR5-Fc, recombinant human FAP as second analyte (simultaneous binding)
[8] = biological target: T3, Human FAP ectodomain + poly-lys-tag + …; experiment: SPR, bispecific captured by anti human IgG (Fc), human FAP 5 µg/ml
[9] = biological target: T6, human DR5 (recombinant, fusion format not stated for the assay) (human, UniProt O14763 56-207); experiment: SPR (Biacore), 2+2 over immobilised DR5 ECD
T6 construct: all antigen constructs carry ECD aa 56-207; also called hu DR5; huDR5

[10] = biological target: T7, Cynom. DR5 (ECD)-AcTev-Fc-Avi (cynomolgus); experiment: SPR (Biacore), 2+2 over immobilised DR5 ECD
T7 construct: also called cynomolgus DR5; cy DR5

[11] = biological target: T6, human DR5 (recombinant, fusion format …); experiment: SPR (Biacore), affinity, 2+2 captured and DR5 injected
[12] = biological target: T7, Cynom. DR5 (ECD)-AcTev-Fc-Avi; experiment: as above
[13] = biological target: T2, Hu DR5 (ECD)-AcTev-Fc-Avi; experiment: SPR (Biacore), biotinylated human DR5-Fc on a streptavidin chip, bispecific antibody as first analyte; remark: listed apart in the source
[14] = biological target: T3, Human FAP ectodomain + poly-lys-tag + …; experiment: SPR (Biacore), bispecific antibody bound to immobilised human DR5-Fc, recombinant soluble human FAP as second analyte (simultaneous binding); remark: listed apart in the source
[15] = biological target: T4, Murine FAP ectodomain + poly-lys-tag + …; experiment: SPR (Biacore), bispecific antibody bound to immobilised human DR5-Fc, recombinant soluble murine FAP as second analyte (simultaneous binding); remark: listed apart in the source

Binder | binding result [1] | Cell Death Detection ELISA, DLD-1 cells with 3T3 cells expressing murine FAP [5] | Avidity [6] | binding result [7] | FAP [RU max] [8] | other results
B1 | binds | – | – | – | – | binding result [2]: binds; binding result [3]: binds; binding result [4]: binds
B2 | binds | – | – | – | – | –
B3 | – | 10 fold | 0.4 nM | binds | – | –
B4 | – | – | – | – | 38.4 RU | –
B5 | – | 10 fold | 0.3 nM | binds | – | Avidity [9]: 0.1 nM; Avidity [10]: 3.72 nM; Kd [11]: 9.8 nM; Kd [12]: 20.2 nM
B6 | – | – | – | – | 41.9 RU | –
B7 | – | 10 fold | 0.6 nM | – | 40.8 RU | –
B8 | – | 10 fold | 0.7 nM | binds | – | Avidity [9]: 0.08 nM; Kd [11]: 5.1 nM; Kd [12]: 2 nM
B9 | – | – | – | – | 7.2 RU | –
B10 | binds | – | – | – | – | binding result [13]: binds; binding result [14]: binds; binding result [15]: binds
